# Where a chain is given by its changes, count along the chain named. Several values for one entry are separate records, joined by “and”; a condition that tells them apart may be missing. Equal entries are not always repeated.
# B1: L14_7 (antibody, V domains shown)
# VH: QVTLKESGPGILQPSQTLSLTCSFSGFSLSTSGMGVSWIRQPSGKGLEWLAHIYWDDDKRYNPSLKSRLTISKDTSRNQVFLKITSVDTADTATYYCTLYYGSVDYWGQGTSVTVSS
# VL: DIQMTQSPASLSASVGETVTITCRSSRDIKDYITWYQQKQGKSPQLLVYNAKTLAEGVPSRFSGSGSGTEFSLKISSLQPEDFGNYYCQHHYGTRTFGGGTRLEIK
# B2: WT 2J88 antibody (antibody, V domains shown)
# VH: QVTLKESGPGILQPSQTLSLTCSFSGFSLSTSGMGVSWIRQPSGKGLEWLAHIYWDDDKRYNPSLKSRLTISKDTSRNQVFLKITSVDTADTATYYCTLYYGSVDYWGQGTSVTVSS
# VL: B1 VL with S25A, R27E, D28N, K30Y, D31S, I33L, E70Q
# Key:
# Bee Hyaluronidase [1] = target: T1, Bee Hyaluronidase (bee); assay: SPR; XPR repeat 2
# T1 chain: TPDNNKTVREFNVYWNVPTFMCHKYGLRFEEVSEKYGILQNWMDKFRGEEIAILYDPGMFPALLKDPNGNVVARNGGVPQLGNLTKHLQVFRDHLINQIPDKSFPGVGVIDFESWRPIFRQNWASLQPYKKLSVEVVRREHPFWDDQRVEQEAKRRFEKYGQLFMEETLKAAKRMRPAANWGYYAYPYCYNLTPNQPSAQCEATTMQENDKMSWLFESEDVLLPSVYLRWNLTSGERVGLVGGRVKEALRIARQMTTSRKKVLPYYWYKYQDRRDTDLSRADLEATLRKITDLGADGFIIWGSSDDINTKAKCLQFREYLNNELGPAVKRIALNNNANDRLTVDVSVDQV
# Bee Hyaluronidase [2] = target: T1, Bee Hyaluronidase; assay: SPR; XPR repeat 1
# Bee Hyaluronidase [3] = target: T1, Bee Hyaluronidase; assay: SPR; XPR repeat 2
# Bee Hyaluronidase [4] = target: T1, Bee Hyaluronidase; assay: SPR
# Bee Hyaluronidase [5] = target: T1, Bee Hyaluronidase; assay: SPR
Binder,Kd (Bee Hyaluronidase [1]),koff (Bee Hyaluronidase [2]),koff (Bee Hyaluronidase [3]),koff (Bee Hyaluronidase [4]),Kd (Bee Hyaluronidase [5])
B1,0.962 nM,0.000115 s⁻¹,0.000133 s⁻¹,–,–
B2,–,–,–,0.00111 s⁻¹ and 0.0013 s⁻¹ and 0.00116 s⁻¹,10.4 nM and 15.6 nM

# — publication PMC5942852 (2018)
